The series “SEC” deals with the molecule itself. Nature of the series: SEC. For orientation: In gel filtration, larger molecules generally elute earlier.
The series “crystal structure” deals with the molecule itself. Nature of the series: crystal structure.

A word on the stoichiometry N: it is the number of molecules, sites or subunits per partner or assembly.

B1: BMC-H^2 (synthetic tandem-domain BMC shell protein), released from 6xHis-SUMO-BMC-H^2 by ULP protease (other, Haliangium ochraceum)
chain: MADALGMIEVRGFVGMVEAADAMVKAAKVELIGYEKTGGGYVTAVVRGDVAAVKAATEAGQRAAERVGEVVAVHVIPRPHVNVDAALPLGRTPGMDKSALDAPVVADAWEEDTESADALGMIEVRGFVGMVEAADAMVKAAKVELIGYEKTGGGYVTAVVRGDVAAVKAATEAGQRAAERVGEVVAVHVIPRPHVNVDAALPLGRTPGMDKSA
For B1, the “stoichiometry N” value in “SEC” was 3; in “crystal structure” it was 90.

The values above are taken from paper PMC6884138 (ACS synthetic biology, 2019).
